Reference: the RNAGym collection of RNA variant scans (doi:10.7554/elife.90254)

B1: LINE1-full (parent)
chain: UACGUAGGUGGUUUUCCCCUGAUAGUGCUAAGGGGGCCUGGAAGUUUGGACUGGGCAGAGCUCAACACAGCGUGGCAAAGUGGCUGUGGCUAGACUGCCUCUCUGGAUUCCUCGUCACUCAGCAGGGCAUCUCUGAGAGAAAUGCC

Variants of: B1
Test: self-cleavage, relative activity (ratio to wild type); higher = more cleavage; in vitro, sequencing; the parent is a self-cleaving ribozyme

Question: For UACGCAGGUGGUUUUCCCCUGAUAGUGCUAAAGGGGCCUGGAAGUUUGGACUGGGCAGAGCUCAACACAGCGUGGCAAAGUGGCUGUGGCUAGACUGCCUCUCUGGAUUCCUCGUCACUCAGCAGGGCAUCUCUGAGAGAAAUGCC [U5C G32A], which self-cleavage is on record?
Answer: Its self-cleavage is 1.06.

Question: Which self-cleavage does the source give for UACGCAGGUGGUUUUCCCCUGAUAGUGCUAAGGGGGCCUGGAAGUUUGGACUGGGCAGAGCUCAACACAGCGUGGCAAAGUGGCUGUGGCUAGACUGCCUCUCUGGAUUCCUCAUCACUCAGCAGGGCAUCUCUGAGAGAAAUGCC [U5C G114A] here?
Answer: Its self-cleavage is 0.96.

Question: For UACGCAGGUGGUUUUCCCCUGAUAGUGCUAAGGGGGCCUGGAAGUUUGGACUGGGCAGAGCUCAACACAGCGUGGCAAAAUGGCUGUGGCUAGACUGCCUCUCUGGAUUCCUCGUCACUCAGCAGGGCAUCUCUGAGAGAAAUGCC [U5C G80A], which self-cleavage is on record?
Answer: The self-cleavage was 2.24.

Question: For UACGCAGGUGGUUUUCCCCUGAUAGUGCUAAGGGGACCUGGAAGUUUGGACUGGGCAGAGCUCAACACAGCGUGGCAAAGUGGCUGUGGCUAGACUGCCUCUCUGGAUUCCUCGUCACUCAGCAGGGCAUCUCUGAGAGAAAUGCC [U5C G36A], which self-cleavage is on record?
Answer: The self-cleavage was 0.4.

Question: Which self-cleavage does the source give for UACGCAGGUGGGUUUCCCCUGAUAGUGCUAAGGGGGCCUGGAAGUUUGGACUGGGCAGAGCUCAACACAGCGUGGCAAAGUGGCUGUGGCUAGACUGCCUCUCUGGAUUCCUCGUCACUCAGCAGGGCAUCUCUGAGAGAAAUGCC [U5C U12G] here?
Answer: The self-cleavage was 1.34.

Question: For UACGCAGGUGGCUUUCCCCUGAUAGUGCUAAGGGGGCCUGGAAGUUUGGACUGGGCAGAGCUCAACACAGCGUGGCAAAGUGGCUGUGGCUAGACUGCCUCUCUGGAUUCCUCGUCACUCAGCAGGGCAUCUCUGAGAGAAAUGCC [U5C U12C], which self-cleavage is on record?
Answer: Its self-cleavage is 0.86.

Question: For UACGCAGGUGGUUUUCCCCUGAUAGUGCUAAGGGGGCCUGGAAGUUUGGACUGGGCAGAGCUCAACACAGCGUGGCAAAGUGGCUGUGGCUAGACUGCCUCUCUGGAUUCCUCGUCACUCAGCAGAGCAUCUCUGAGAGAAAUGCC [U5C G126A], which self-cleavage is on record?
Answer: The self-cleavage was 1.36.

Question: Which self-cleavage does the source give for UACGCAGGUGGUUUUCCCCUGAUAGUGCUAAGAGGGCCUGGAAGUUUGGACUGGGCAGAGCUCAACACAGCGUGGCAAAGUGGCUGUGGCUAGACUGCCUCUCUGGAUUCCUCGUCACUCAGCAGGGCAUCUCUGAGAGAAAUGCC [U5C G33A] here?
Answer: Its self-cleavage is 1.45.

Question: Which self-cleavage does the source give for UACGCAGGUGGUUUUCCCCUGAUAGUGCUAAGGGGGCCUGGAAGUUUGGACUGGGCAGAGCUCAACACAGCGUGGCAAAGUAGCUGUGGCUAGACUGCCUCUCUGGAUUCCUCGUCACUCAGCAGGGCAUCUCUGAGAGAAAUGCC [U5C G82A] here?
Answer: Its self-cleavage is 1.18.

Question: With UACGCAGGUGGUUUUCCCCUGAUAGUGCUAAGGGGGCCUGGAAGUUUGGACUGGGCAGAGCUCAACACAGCGUGGCAAAGUGGCUGUGGCUAGACUACCUCUCUGGAUUCCUCGUCACUCAGCAGGGCAUCUCUGAGAGAAAUGCC [U5C G97A] as the variant, how does the self-cleavage read?
Answer: Its self-cleavage is 0.

Question: With UACGCAGGAGGUUUUCCCCUGAUAGUGCUAAGGGGGCCUGGAAGUUUGGACUGGGCAGAGCUCAACACAGCGUGGCAAAGUGGCUGUGGCUAGACUGCCUCUCUGGAUUCCUCGUCACUCAGCAGGGCAUCUCUGAGAGAAAUGCC [U5C U9A] as the variant, how does the self-cleavage read?
Answer: The self-cleavage was 0.74.

Question: Which self-cleavage does the source give for UACGCAGGCGGUUUUCCCCUGAUAGUGCUAAGGGGGCCUGGAAGUUUGGACUGGGCAGAGCUCAACACAGCGUGGCAAAGUGGCUGUGGCUAGACUGCCUCUCUGGAUUCCUCGUCACUCAGCAGGGCAUCUCUGAGAGAAAUGCC [U5C U9C] here?
Answer: The self-cleavage was 1.28.

Question: For UACGCAGGUGGUUUUCCCCUGAUAGUGCUAAGGGGGCCUGGAAGUUUGGACUGGGCAGAGCUCAACACAGCGUGGCAAAGUGGCUGUGUCUAGACUGCCUCUCUGGAUUCCUCGUCACUCAGCAGGGCAUCUCUGAGAGAAAUGCC [U5C G89U], which self-cleavage is on record?
Answer: The self-cleavage was 0.16.

Question: Which self-cleavage does the source give for UACGCAGGUGGUUUUCCCCUGAUAGUGCUAAGGGGGCCUGGAAGUUUGGACUUGGCAGAGCUCAACACAGCGUGGCAAAGUGGCUGUGGCUAGACUGCCUCUCUGGAUUCCUCGUCACUCAGCAGGGCAUCUCUGAGAGAAAUGCC [U5C G53U] here?
Answer: Its self-cleavage is 0.88.

Question: For UACGCAGGUGGUUUUCCCCUGAUAGUGCUAAGGGGGCCUGGAAGUUUGGACUGGGCAGAGCUCAACACAGCGUGGCAAAGUGGCUGUGGCUAGACUGCCUCUCUAGAUUCCUCGUCACUCAGCAGGGCAUCUCUGAGAGAAAUGCC [U5C G105A], which self-cleavage is on record?
Answer: The self-cleavage was 1.16.

Question: With UACGCAGGUGGUUUUCCCCUGAUAGUGCUAAGGGGGCCUGGAAGUUUGGACUGGGCAGAGCUCAACACAGCGUGGCAAAGUGGCUGUGGCUAGACUGCCUCUCUUGAUUCCUCGUCACUCAGCAGGGCAUCUCUGAGAGAAAUGCC [U5C G105U] as the variant, how does the self-cleavage read?
Answer: Its self-cleavage is 1.32.

Question: For UACGCAGGUGGUUUUCCCCUGAUAGUGCUAAGGGGGCCUGGAAGUUUGGACUGGGCAGAGCUCAACACAGCGUGGCAAAGUGGCUGUGGCUAGACUGCCUCUCUGGAUUCCUCGUCACUCAGCAGGGCAUCUCUAAGAGAAAUGCC [U5C G135A], which self-cleavage is on record?
Answer: The self-cleavage was 0.96.

Question: Which self-cleavage does the source give for UACGCAGGUGGUUUUCCCCUGAUAGUGCUAAGGGGGCCUGGAAGUUUGGACUGGGCAGAGCUCAACACAGCGUUGCAAAGUGGCUGUGGCUAGACUGCCUCUCUGGAUUCCUCGUCACUCAGCAGGGCAUCUCUGAGAGAAAUGCC [U5C G74U] here?
Answer: The self-cleavage was 0.38.

Question: Which self-cleavage does the source give for UACGCAGGUGGUUUUCCCCUGAUAGUGCUAAGGGGGCCUGGAAGUUUGGACUGGGCAGAGCUCAACACAGCGUGGCAAAGUGGCUGUGGCUAGACUGCCUCUCUGGAUUCCUCGUCACUCAGCAGGGCAUCUCUGAGAGAAAUACC [U5C G144A] here?
Answer: Its self-cleavage is 1.39.

Question: For UACGCAGGUGGUUUUCCCCUGAUAGUGCUAAGGGGGCCUGGAAGUUUGGACUGGACAGAGCUCAACACAGCGUGGCAAAGUGGCUGUGGCUAGACUGCCUCUCUGGAUUCCUCGUCACUCAGCAGGGCAUCUCUGAGAGAAAUGCC [U5C G55A], which self-cleavage is on record?
Answer: The self-cleavage was 0.5.
